Self-cleavage data for 167 variants are collected here from the RNAGym collection of RNA variant scans (doi:10.7554/elife.80360).

To fix the notation:
B1: CPEB3 Ribozyme (parent)
chain: GGGGGCCACAGCAGAAGCGUUCACGUCGCGGCCCCUGUCAGAUUCUGGUGAAUCUGCGAAUUCUGCUGU

The data set covers variants of B1. The data set is described as follows: self-cleavage, relative activity (ratio to wild type); higher = more cleavage; co-transcriptional.
For C9A U55C, the self-cleavage turned out to be 0.982.
Turning to C7U G41C, the self-cleavage worked out at 0.647.
Turning to A8C G37C, the self-cleavage was found to be 0.239.
Under A8G A51G stands 0.901; under A8G A51U, 0.772; under C9A G58U, 1.04.
Under C9A G58C stands 1.04.
Take C7U G11A: the self-cleavage was 0.816.
The value for C7U G11C was 0.663; that for C9G A15G was 0.988; that for C9G A15U was 0.911.
The value for C9G A59C was 0.896.
Under A8U C45G stands 0.958.
Regarding A8U C45A, the self-cleavage came to 1.01.
Consider A8U U61C, for which the self-cleavage stood at 0.808.
Under C9G G47U stands 1.04; under C9G G47A, 1.05; under A8C C33U, 1.
Under A8C U55C stands 0.891; under A8U G14C, 0.593; under C9A C24A, 0.891.
Take C9A C24U: the self-cleavage worked out at 0.934.
The value for C7U G58U was 0.983; that for A8G C35U was 0.808.
Under A8C C24A stands 0.707; under C9A U67A, 1.03.
The value for C7U C35G was 0.28; that for C9A A42G was 0.997.
Take C9A A42U: the self-cleavage worked out at 0.997.
Under C9A C66U stands 1.02; under A8U C57U, 0.361; under A8U C57A, 0.299.
In the case of C9A G17C, the self-cleavage was determined as 0.204.
Regarding A8C U67G, the self-cleavage turned out to be 0.975.
Turning to A8C U67C, the self-cleavage came out at 1.
Consider A8C U21A, for which the self-cleavage came out at 0.972.
Under A8C U21G stands 0.501.
The value for C9A U43C was 1.03; that for C9A A15U was 0.886.
Take C9A A15C: the self-cleavage stood at 0.931.
Consider C9A C32G, for which the self-cleavage turned out to be 0.843.
Take C9A C32A: the self-cleavage came out at 1.
The value for A8G A10C was 0.666.
As to A8G A10G, the self-cleavage worked out at 0.122.
Under A8G G65U stands 0.223.
A8G G65C: the self-cleavage turned out to be 0.424.
In the case of C9G C35A, the self-cleavage is 0.267.
As for A8U C12U, the self-cleavage is 1.05.
Under A8U U44A stands 0.97; under A8C G41C, 0.757.
Under C9A G48A stands 1.01; under A8G C45G, 0.801.
For A8U A40G, the self-cleavage is 0.97.
Take C9A A52C: the self-cleavage was found to be 1.01.
The value for C9A A52G was 1.02.
As for C9A A52U, the self-cleavage amounted to 1.03.
For C9A U21A, the self-cleavage worked out at 1.01.
Consider C9A C29U, for which the self-cleavage turned out to be 0.992.
Under C9A C29A stands 0.86.
The value for A8G A60C was 0.143; that for A8U A42G was 0.943.
The value for C9G C24G was 0.608; that for C9A C63A was 0.953.
Consider C9A C63G, for which the self-cleavage worked out at 0.806.
In the case of A8U G48U, the self-cleavage worked out at 1.03.
Consider C9G C45A, for which the self-cleavage stood at 1.01.
Turning to C9G C45U, the self-cleavage is 0.998.
A8U C33U: the self-cleavage was determined as 0.996.
As to A8U C33A, the self-cleavage was 0.935.
For A8U G25U, the self-cleavage worked out at 0.0965.
Under A8C G56U stands 0.908; under A8C U43A, 0.971.
For the variant A8C U43C, the self-cleavage was 0.95.
The value for A8C U43G was 0.938.
Consider C9A C34G, for which the self-cleavage came to 0.995.
The value for C7U G50A was 0.996; that for C9A G56U was 0.98.
In the case of C9A G56C, the self-cleavage was 0.921.
In the case of C9G G28A, the self-cleavage is 0.264.
Under C9G G28C stands 0.149; under A8C A51G, 0.962.
Under A8C A51C stands 0.981; under A8C G68A, 1.02.
Consider C9A C45G, for which the self-cleavage came out at 1.03.
Under C7U C57G stands 0.155.
The value for C7U C66A was 0.8.
As to C7U C66U, the self-cleavage came to 0.982.
Under C7U C54G stands 0.766; under A8C U61A, 0.913; under C9A G25C, 0.228.
A8C G65C: the self-cleavage was found to be 0.635.
Turning to A8G G58A, the self-cleavage is 0.867.
Under A8G G58U stands 0.92; under C9G A60G, 0.952; under A8U C39U, 0.986.
As for A8C A42C, the self-cleavage was 0.992.
A8U G50U: the self-cleavage was found to be 1.01.
For A8C G19C, the self-cleavage came out at 0.107.
Turning to A8C G19U, the self-cleavage came out at 0.462.
Under C9A A40G stands 1.
The value for C9G G30C was 0.948.
C9G G30U: the self-cleavage is 0.759.
In the case of C9G G30A, the self-cleavage is 0.975.
Take A8G U20A: the self-cleavage was found to be 0.0589.
For the variant A8U C63U, the self-cleavage came to 1.03.
As for A8U C63G, the self-cleavage came to 0.782.
For A8U A15C, the self-cleavage came to 0.812.
In the case of A8C C54A, the self-cleavage came to 0.915.
Take A8U U21A: the self-cleavage was found to be 0.994.
As to A8G U21G, the self-cleavage was determined as 0.199.
Under A8G U21A stands 0.833; under C9A G50A, 1.02.
In the case of C9A G50U, the self-cleavage turned out to be 0.999.
The value for C9A G50C was 1.03; that for A8U U64G was 0.87.
The value for A8U U64C was 0.953.
Under A8G U67A stands 0.59.
For A8C C32A, the self-cleavage was found to be 0.784.
The value for A8U C9A was 1.03; that for C7U U26A was 0.597.
The value for C7U U26G was 0.762.
Under A8U G41A stands 0.789.
Regarding C7U U53C, the self-cleavage turned out to be 0.784.
For the variant C9A A59U, the self-cleavage was 0.897.
Regarding A8G G47A, the self-cleavage is 1.
The value for A8G G37U was 0.134; that for A8G G37A was 0.128; that for C9G A40C was 0.715.
Turning to C9G A40U, the self-cleavage was 0.827.
On to C9G C33A, for which the self-cleavage came to 1.03.
Regarding C9G C34A, the self-cleavage was 0.953.
In the case of C9G C34U, the self-cleavage turned out to be 1.01.
As for C7U U46G, the self-cleavage was 0.934.
The value for C7U U46A was 0.985.
For A8U C35G, the self-cleavage worked out at 0.435.
C7U U20G: the self-cleavage came out at 0.17.
With A8G A13G, the self-cleavage came out at 0.192.
On to A8G A13C, for which the self-cleavage stood at 0.126.
Under A8C A13U stands 0.849.
A8C A13G: the self-cleavage worked out at 0.987.
Consider A8C U69C, for which the self-cleavage was 1.07.
Under C7U G25U stands 0.089.
The value for C9A U53G was 1.
In the case of C9A A23C, the self-cleavage is 1.01.
On to C7U U49A, for which the self-cleavage was determined as 0.957.
The value for C7U U64G was 0.899; that for C7U U21C was 0.688; that for C9A C12A was 0.806.
With C7U G28A, the self-cleavage stood at 0.123.
Under A8U U49C stands 1.02; under A8U U49A, 0.98.
As to A8C C29U, the self-cleavage stood at 0.81.
Under A8C C29G stands 0.0981; under C7U U43G, 0.757.
For C9G A13U, the self-cleavage is 0.837.
Under A8C U20G stands 0.141.
For C9G G48U, the self-cleavage turned out to be 1.01.
With A8C C12A, the self-cleavage turned out to be 0.637.
Turning to A8G G19A, the self-cleavage amounted to 0.0612.
For C9G G14A, the self-cleavage was found to be 0.783.
Under C9A G65A stands 0.955; under C9A G65U, 0.844; under C7U G14C, 0.417.
A8U A59G: the self-cleavage was found to be 1.
In the case of A8U A23C, the self-cleavage is 0.944.
The value for A8U A51C was 0.974; that for A8G C33G was 0.488.
